Measured values as given in US20110152176A1, “AGR-MEDIATED INHIBITION AND DISPERSAL OF BIOFILMS” (priority 2008, published 2011).

How the values were obtained:
SH1000 biofilm = test: Microtiter plate biofilm formation; assay type: cell-based, Staphylococcus aureus; details: proteinase K added to SH1000 (data not shown)
Method: (§1) Biofilm experiments. Microtiter plate biofilms were performed as described (Shanks et al., 2005) except that the plates were incubated at 37° C. with shaking at 200 rpm for 12 hours. For flow cell experiments, AIPs were generated using the DnaB intein method, and the AIP concentrations were determined as previously described (Malone et al., 2007). AIPs stocks (20 mM) were stored in 100 mM phosphate (pH 7), 50 mM NaC1, 1 mM tris(2-carboxyethyl) phosphine (TCEP) and were diluted into the biofilm flow medium to a final concentration of 50 nM. When required, […] of erythromycin and/or chloramphenicol were added to the flow cell media to maintain plasmids. The growth medium for flow cell biofilms consisted of 2% TSB plus 0.2% glucose unless otherwise indicated. Flow cell biofilm experiments and confocal microscopy were performed as previously described (Yarwood et al., 2004). Flow cells were inoculated with overnight cultures diluted 1:100 in sterile water and laminar flow (170 ml/min) was initiated after one hour incubation. […] Biofilm biomass was quantified with the COMSTAT program (Heydorn et al., 2000) and percent biomass detached was calculated by subtracting biomass present at day 4 from day 2. To quantitate the number of bacteria detaching from a biofilm, 1 ml of flow cell effluent was collected on ice at indicated time points. […]

S. aureus SH1000 biofilm = test: Flow cell biofilm detachment (CLSM, COMSTAT biomass, effluent CFU); assay type: cell-based, Staphylococcus aureus; details: SH1000 2-day biofilm, proteinase K 2 mg/mL
Method: as §1, with “2004).” for “2004). Flow cells were inoculated with overnight cultures diluted 1:100 in sterile water and laminar flow (170 ml/min) was initiated after one hour incubation.”
AIP detaches S. aureus biofilms. […] To confirm that AIP-I caused detachment, the inventors counted viable S. aureus cells in the effluent media (FIG. 2C). […]

B1: proteinase K: protease enzyme (Sigma-Aldrich) suspended in water and added to the media reservoir (protein, UniProt P06873 106-384, looked up)
Proteinase K: AAQTNAPWGLARISSTSPGTSTYYYDESAGQGSCVYVIDTGIEASHPEFEGRAQMVKTYYYSSRDGNGHGTHCAGTVGSRTYGVAKKTQLFGVKVLDDNGSGQYSTIIAGMDFVASDKNNRNCPKGVVASLSLGGGYSSSVNSAAARLQSSGVMVAVAAGNNNADARNYSPASEPSVCTVGASDRYDRRSSFSNYGSVLDIFGPGTSILSTWIGGSTRSISGTSMATPHVAGLAAYLMTLGKTTAASACRYIADTANKGDLSNIPFGTVNLLAYNNYQA
With B1 the “biofilm development in microtiter plate” value (SH1000 biofilm) was “biofilms were unable to develop” and the “biofilm detachment observed by CLSM” value (S. aureus SH1000 biofilm) was “rapid detachment over 12 hrs”.
